Biological target: T1, recombinant canine CD117-ECD-human-Fc fused protein (canine, UniProt O97799 28-527)
T1 construct: canine CD117 (c-Kit) extracellular domain, amplified by PCR from a GeneArt-synthesized CD117 template (NP_001003181); The forward primer begins at the ATG start codon (MRGARG), so the secretion signal appears to be in the construct; Dimer through disulfide linkage in the hFc domain (non-reducing SDS-PAGE); also called CD117-hFc; ECD-CD117-hFc; source: CHO-S cells, transient transfection, purified …
T1 sequence (O97799 28-527): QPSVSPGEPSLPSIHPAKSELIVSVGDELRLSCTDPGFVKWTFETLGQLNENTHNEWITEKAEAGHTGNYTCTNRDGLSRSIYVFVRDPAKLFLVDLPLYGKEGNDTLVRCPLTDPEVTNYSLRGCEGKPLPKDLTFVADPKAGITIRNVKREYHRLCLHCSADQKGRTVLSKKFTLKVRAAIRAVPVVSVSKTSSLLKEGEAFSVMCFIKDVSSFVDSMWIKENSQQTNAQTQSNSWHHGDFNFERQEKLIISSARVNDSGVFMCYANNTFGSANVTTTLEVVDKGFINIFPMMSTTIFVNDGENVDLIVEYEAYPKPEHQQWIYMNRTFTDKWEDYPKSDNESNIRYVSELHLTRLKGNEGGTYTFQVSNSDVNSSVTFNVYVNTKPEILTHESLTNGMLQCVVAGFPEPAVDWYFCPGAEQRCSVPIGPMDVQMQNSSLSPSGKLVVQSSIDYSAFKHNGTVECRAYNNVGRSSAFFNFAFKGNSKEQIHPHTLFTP
Test: ELISA; competitive ELISA: plate coated with 1 ug/mL canine CD117-hFc; 50 ng/mL canine SCF-His pre-mixed with serially diluted mAbs (from 40 ug/mL) in 2% MPBS, RT 1 h; bound SCF detected with anti-His HRP
Details: both partners purified

B1: recombinant canine stem cell factor (SCF)-His (ligand, UniProt Q06220 26-191, looked up)
chain: KGICGKRVTDDVKDVTKLVANLPKDYKIALKYVPGMDVLPSHCWISVMVEQLSVSLTDLLDKFSNISEGLSNYSIIDKLVKIVDDLVECTEGYSFENVKKAPKSPELRLFTPEEFFRIFNRSIDAFKDLETVASKSSECVVSSTLSPDKDSRVSVTKPFMLPPVAA
notes: signal peptide in the construct; canine SCF, secretion signal and the soluble part of the extracellular domain, NP_001012753.1 residues 1 to 191; also called canine SCF; SCF-His-tag; source: CHO-S cells, transient transfection, purified from supernatant (HisTrap excel IMAC)
B1: binds.

Reference: PMC6640692, “Canine CD117-Specific Antibodies with Diverse Binding Properties Isolated from a Phage Display Library Using Cell-Based Biopanning” (Antibodies, 2019)
